Results: patent publication US5550213

Molecular target: Urokinase plasminogen activator (Homo sapiens (Human)) (UniProt P00749)
Assay: inhibition of UK activity; Ki by non-linear regression (Enzfitter) of free enzyme versus inhibitor concentration

Ki: 1790 nM
Substance: mutant with arginine at the P1 site of OM3TKY (designed binder)
